Results on one molecule are retold here after patent US20240368283A1 (published 2024).

In test [1] the target is PD-1 (in the reporter cells of the PD-1 agonism assay) (Homo sapiens (Human), UniProt Q15116 25-288). Kind of test: cell-based or functional assay.
Test [2] concerns the target FcγRI. Kind of test: Fc receptor affinity, Table 29 (method for Fc receptors not told in Example 43).
Test [3] concerns the target T1, human FcγRIIβ (human, UniProt P31994 46-217, limits assumed).
T1 construct: also called FcγRIIb; R2b
T1 sequence (looked up): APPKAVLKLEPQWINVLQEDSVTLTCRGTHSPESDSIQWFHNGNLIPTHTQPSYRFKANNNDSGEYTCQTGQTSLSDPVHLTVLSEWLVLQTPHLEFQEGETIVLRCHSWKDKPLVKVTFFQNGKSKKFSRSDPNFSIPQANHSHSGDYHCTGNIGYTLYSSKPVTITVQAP
Described as above.

For test [4], the target named is T1, human FcγRIIβ. Kind of test: ratio of KD on FcγRIIα R131 to KD on FcγRIIβ, Table 29.

Chain of PD-1 (in the reporter cells of the PD-1 agonism assay) (Q15116 25-288 limits assumed): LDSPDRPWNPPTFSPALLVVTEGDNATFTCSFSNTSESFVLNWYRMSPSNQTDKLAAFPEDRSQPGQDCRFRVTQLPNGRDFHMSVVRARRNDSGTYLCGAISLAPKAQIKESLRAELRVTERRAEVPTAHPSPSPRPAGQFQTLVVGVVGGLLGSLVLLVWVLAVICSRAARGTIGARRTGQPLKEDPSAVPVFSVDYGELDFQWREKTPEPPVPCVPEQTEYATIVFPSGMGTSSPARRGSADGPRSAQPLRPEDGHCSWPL
Chain of FcγRI (P12314 16-292): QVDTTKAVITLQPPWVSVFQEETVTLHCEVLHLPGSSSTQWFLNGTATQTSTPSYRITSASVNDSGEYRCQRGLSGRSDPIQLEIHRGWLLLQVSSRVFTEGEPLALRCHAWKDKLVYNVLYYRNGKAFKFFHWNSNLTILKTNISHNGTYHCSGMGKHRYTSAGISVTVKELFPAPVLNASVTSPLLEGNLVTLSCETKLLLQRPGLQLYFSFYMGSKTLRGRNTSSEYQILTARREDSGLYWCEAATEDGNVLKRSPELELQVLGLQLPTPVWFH

B1: TA322 (antibody, human IgG1, kappa)
heavy: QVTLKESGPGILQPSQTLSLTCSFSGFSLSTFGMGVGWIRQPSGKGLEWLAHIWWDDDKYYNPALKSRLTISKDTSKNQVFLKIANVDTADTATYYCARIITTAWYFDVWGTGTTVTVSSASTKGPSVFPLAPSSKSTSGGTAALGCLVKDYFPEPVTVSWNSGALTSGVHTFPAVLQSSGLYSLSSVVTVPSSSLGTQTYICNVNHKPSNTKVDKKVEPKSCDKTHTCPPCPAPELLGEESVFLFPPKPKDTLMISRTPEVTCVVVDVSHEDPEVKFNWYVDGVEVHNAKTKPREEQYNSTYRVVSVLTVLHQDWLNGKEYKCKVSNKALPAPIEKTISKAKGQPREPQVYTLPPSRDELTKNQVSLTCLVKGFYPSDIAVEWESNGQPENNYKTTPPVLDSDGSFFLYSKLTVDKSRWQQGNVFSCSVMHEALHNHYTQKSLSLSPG
light: QAVVTQESALTTSPGETVTLTCRSSTGAVTTSNYANWVQEKPDHLFTGLIGGTNNRAPGVPARFSGSLIGDKAALTITGAQTEDEAIYFCALWYSNHFIFGSGTKVTVLRTVAAPSVFIFPPSDEQLKSGTASVVCLLNNFYPREAKVQWKVDNALQSGNSQESVTEQDSKDSTYSLSSTLTLSKADYEKHKVYACEVTHQGLSSPVTKSFNRGEC
Take B1: in test [1], the Emax came out at 2.1 and the “log EC50” value is -8.3. The “Affinity to RI relative to WT” value in test [2] was above 10 fold lower than WT. The Kd in test [3] was 3.5 µM. In test [4], the “R131/2b (fold)” value worked out at 9.7 fold.
